Test results taken from paper PMC8697598 (ACS Omega, 2021).

Assays:
AfGcHK = molecular target: T1, AfGcHK (Anaeromyxobacter sp. Fw109-5, UniProt A7HD43); assay: autophosphorylation, Phos-tag SDS-PAGE; assay type: biochemical; conditions: Fe(III) and Fe(II)-O2 heme forms of Fe-AfGcHK; 1 mM ATP, 5 mM MgCl2, pH 8.0, 25 °C
T1 construct: gene gchK; full-length, C-terminal His6 tag kept, pET-21c in E. coli BL21(DE3); reconstituted with heme or cobalt protoporphyrin IX
T1 sequence (A7HD43 1-382): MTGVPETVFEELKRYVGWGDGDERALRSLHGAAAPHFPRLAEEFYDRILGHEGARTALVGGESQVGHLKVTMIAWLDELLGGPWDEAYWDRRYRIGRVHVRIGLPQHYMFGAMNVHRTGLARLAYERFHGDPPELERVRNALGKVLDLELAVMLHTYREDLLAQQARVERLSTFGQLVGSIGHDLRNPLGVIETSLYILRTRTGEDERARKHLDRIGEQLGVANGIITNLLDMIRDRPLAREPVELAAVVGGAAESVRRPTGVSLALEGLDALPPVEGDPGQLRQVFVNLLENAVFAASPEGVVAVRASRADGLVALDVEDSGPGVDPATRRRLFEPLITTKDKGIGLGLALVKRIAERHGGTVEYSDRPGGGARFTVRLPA

[1] = molecular target: the molecule itself; assay: SEC; analytical gel filtration, Superdex 200 Increase 10/300 GL, 50 mM Tris-HCl pH 8.0, 100 mM NaCl; molecular weight estimated from elution volumes of standard proteins

With `Nc1ncnc2c1ncn2[C@@H]1O[C@H](COP(=O)(O)OP(=O)(O)OP(=O)(O)O)[C@@H](O)[C@H]1O` [ATP] the “autophosphorylation, Phos-tag SDS-PAGE” value (AfGcHK) was “the Fe(III), and Fe(II)-O2 complexes of Fe-AfGcHK displayed autophosphorylation activity”.

B1: Fe-AfGcHK, globin-coupled histidine kinase from Anaeromyxobacter sp. Fw109-5 reconstituted with heme (iron protoporphyrin IX) (enzyme, UniProt A7HD43 1-382, looked up)
chain: T1 sequence (A7HD43 1-382)
notes: AfGcHK, globin-coupled oxygen sensor histidine kinase from Anaeromyxobacter sp; Fw109-5; full-length protein with N-terminal globin sensor domain and C-terminal histidine kinase domain; predicted mass 43.0 kDa with the C-terminal His6 tag; Holds one equivalent of heme (iron protoporphyrin IX) per subunit; As purified, partially pre-autophosphorylated (about 10%, at His183); source: E. coli …
For B1, the “stoichiometry N” value [1] was 2.

B2: Co-AfGcHK, cobalt-substituted AfGcHK (globin-coupled histidine kinase from Anaeromyxobacter sp. Fw109-5 reconstituted with cobalt protoporphyrin IX) (enzyme, UniProt A7HD43 1-382, looked up)
chain: T1 sequence (A7HD43 1-382)
notes: AfGcHK, globin-coupled oxygen sensor histidine kinase from Anaeromyxobacter sp; Fw109-5; full-length protein with N-terminal globin sensor domain and C-terminal histidine kinase domain; predicted mass 43.0 kDa with the C-terminal His6 tag; Same polypeptide and construct as m1; source: E. coli BL21(DE3), pET-21c; cobalt(III) protoporphyrin IX chloride added to the crude extract; purified (HisTrap …)
With B2 the “stoichiometry N” value [1] was 2.
